According to paper PMC6591005 (Immunity, 2019):

Legend:
Conditions in all cases: both partners purified
GII.4.2002 P domain = GII.4.2002 P domain (Human norovirus GII.4 2002 Farmington …, UniProt R4I4P2, strain); test: crystal structure
[1] = molecular target: T1, GII.4 1997 Virus like particles (Human norovirus GII.4 1997 (US95_96), …, UniProt R4I4R2, strain); test: ELISA; EIA: plates coated with VLP at 0.25 μg/ml in PBS for 4 h, blocked in 5% dry milk in PBS-0.05% Tween-20; two-fold serial dilutions of mAb at 37°C; anti-human IgG-HRP; less than 0.2 OD at 2 μg/ml scored as negative
T1 construct: copies: 180

[2] = molecular target: T2, GII.4 2002 Virus like particles (Human norovirus GII.4 2002 Farmington …, UniProt R4I4P2, strain); test: as above
T2 construct: copies: 180

[3] = molecular target: T3, GII.4 2006b Virus like particles (Human norovirus GII.4 2006b …, UniProt R4I3T2, strain); test: as above
T3 construct: copies: 180

[4] = molecular target: T4, GII.4 2012 Virus like particles (Human norovirus GII.4 Sydney 2012, …, UniProt K4LM89, strain); test: as above
T4 construct: copies: 180

[5] = molecular target: T5, GII.4 2015 Virus like particles (Human norovirus GII.P16-GII.4 Sydney …, strain); test: as above
T5 construct: copies: 180
T5 chain: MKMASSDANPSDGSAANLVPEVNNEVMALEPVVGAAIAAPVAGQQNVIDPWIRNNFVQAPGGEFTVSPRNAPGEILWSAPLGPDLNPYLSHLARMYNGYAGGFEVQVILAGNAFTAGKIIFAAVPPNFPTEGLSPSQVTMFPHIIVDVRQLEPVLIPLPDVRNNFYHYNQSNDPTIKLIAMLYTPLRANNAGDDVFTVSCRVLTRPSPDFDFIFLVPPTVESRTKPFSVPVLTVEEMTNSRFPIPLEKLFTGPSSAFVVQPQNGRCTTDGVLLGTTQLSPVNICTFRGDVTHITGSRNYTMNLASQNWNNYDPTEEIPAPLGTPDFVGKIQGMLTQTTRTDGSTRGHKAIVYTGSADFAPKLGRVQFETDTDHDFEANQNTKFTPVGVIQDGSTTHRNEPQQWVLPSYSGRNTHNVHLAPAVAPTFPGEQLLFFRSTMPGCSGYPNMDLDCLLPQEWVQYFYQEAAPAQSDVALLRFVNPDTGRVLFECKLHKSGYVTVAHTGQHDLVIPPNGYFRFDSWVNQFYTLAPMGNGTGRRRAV

[6] = molecular target: GII.2 Virus like particles (Human norovirus GII.2 (Snow Mountain …, UniProt Q80RD6, strain)); test: as above
[7] = molecular target: GII.17 Virus like particles (Human norovirus GII.17, GenBank …, UniProt A0A0E3X5I8, strain); test: as above
[8] = molecular target: soluble GII.4 P domain from the 2006 pandemic strain (Human norovirus GII.4 2006, taken as …, UniProt R4I3T2, strain); test: co-purification of the complex; Fab of A1227 purified in complex with soluble GII.4 P domains, screened for crystallization
[9] = molecular target: soluble GII.4 P domain from the 2009 pandemic strain (Human norovirus GII.4 2009 New Orleans, …, UniProt D3YBZ4, strain); test: as above
[10] = molecular target: soluble GII.4 P domain from the 2012 pandemic strain (Human norovirus GII.4 Sydney 2012, …, UniProt K4LM89, strain); test: as above

Measured: binding result

B1: A1431 Fab (Fab, V domains shown)
VH: QVQLVQSGGGLVQPGGSLRLSCAASGFAFSNHGMHWVRQAPGKGLEWLSYISGSTGAIHYANSVKGRFTISRDNARNSLDLQMNSLGDEDTAVYYCARDGPRPDGTGYAGPSNDYWGQGTLVSVSS
VL: EIVLTQSPASLSLSPGERATLSCKASRSISIYLAWYQQKPGQAPRLLIYDASYRAIGIPARFSGSGSGTDFTLTISNLEPEDFAVYYCQHRSSWPALTFGGGTKVEIK
binds: GII.4.2002 P domain

B2: A1227 (recombinant IgG1) (antibody, V domains shown)
VH: QVQLVQSGGGMVQPGGSLSLSCAASGFTLSNYAMTWVRQAPGKGLEWVSSIGGSGGTTYYADSVKGRFTISRDSSMNTLYLQMSNLRAGDTAVYYCAKDKTRTLRLGYSGMDVWGQGTTVTVSS
VL: DIRLTQSPSSLSASVGDRVTITCRASQSISSYLNWYQQKPGKAPDLLIYGASSLQSGVPSRFSGSGSGTDFTLTISSLQPEDFGNYYCQQSFSTPRTFGQGTKVELK
not listed: GII.4.2002 P domain | [8] | [9] | [10]
binds: all other assays above

B3: A1227 Fab (Fab, V domains shown)
VH: B2 VH
VL: B2 VL
notes: also called Fab A1227
binds: [8] | [9] | [10]
